How the values were obtained:
[1] = target: Polyclonal human IgG Gammanorm; assay: Binder coupled to Praesto Pure45 agarose beads. Mass of injected polyclonal hIgG (Gammanorm) at 10% breakthrough, 6 min residence time (Example 10).
[2] = target: human IgG1; assay: ELISA, IgG1 antibody coated on plate, detection with Strep-Tactin-HRP

Kd [2] [nM] | Substance | dynamic binding capacity [1] [mg/mL]
– | R PROTEIN A | 37.4
3.1 | Staphylococcus aureus Protein A domain B | –
